Common to all, as to experiment: peptide SPOT array, c-Myc-tagged receptor at 1 uM or 100 nM, anti-c-Myc-Cy3
One assay concerns the target T1, Bfl-1, Q16548.
T1 chain: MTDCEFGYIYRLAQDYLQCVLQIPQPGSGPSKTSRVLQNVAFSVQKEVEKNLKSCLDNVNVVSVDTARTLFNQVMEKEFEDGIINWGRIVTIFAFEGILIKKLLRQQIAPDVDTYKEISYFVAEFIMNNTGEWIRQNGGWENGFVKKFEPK

Another assay has as its target T2, Bcl-w, Q92843.
T2 chain: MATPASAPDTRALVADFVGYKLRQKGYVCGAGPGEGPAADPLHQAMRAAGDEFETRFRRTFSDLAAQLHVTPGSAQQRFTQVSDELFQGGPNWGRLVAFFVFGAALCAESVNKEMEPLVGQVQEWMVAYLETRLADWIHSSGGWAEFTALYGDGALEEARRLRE

The target of a further assay is Bcl-xL, Q07817.
Bcl-xL, Q07817, sequence (Q07817 1-209): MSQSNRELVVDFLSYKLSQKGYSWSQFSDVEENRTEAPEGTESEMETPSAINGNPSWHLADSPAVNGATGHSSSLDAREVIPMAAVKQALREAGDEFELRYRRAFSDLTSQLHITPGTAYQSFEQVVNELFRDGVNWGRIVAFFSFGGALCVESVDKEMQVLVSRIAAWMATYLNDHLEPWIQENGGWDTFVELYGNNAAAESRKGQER
Another assay deals with Bcl-2, P10415.
Bcl-2, P10415, sequence (P10415 1-217): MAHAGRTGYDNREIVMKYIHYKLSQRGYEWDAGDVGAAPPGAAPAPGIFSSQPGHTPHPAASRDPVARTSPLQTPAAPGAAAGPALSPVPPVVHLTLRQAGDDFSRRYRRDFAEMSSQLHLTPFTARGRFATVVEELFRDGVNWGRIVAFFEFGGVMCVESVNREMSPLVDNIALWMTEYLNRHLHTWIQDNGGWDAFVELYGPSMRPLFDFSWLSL
For a further assay, the target named is T3, Mcl-1, Q07820.
T3 chain: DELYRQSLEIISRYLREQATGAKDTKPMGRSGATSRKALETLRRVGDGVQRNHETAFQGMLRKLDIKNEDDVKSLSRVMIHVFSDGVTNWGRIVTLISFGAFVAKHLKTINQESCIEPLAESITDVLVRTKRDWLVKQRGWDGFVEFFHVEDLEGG

Experimental findings from PMC4072508, “Genome-Wide Prediction and Validation of Peptides That Bind Human Prosurvival Bcl-2 Proteins” (PLoS Computational Biology, 2014) are described below.

Turning to LFRRRDISSSLNSLADSNAREFEEES, the SPOT signal as a fraction of Bim BH3's signal on the same receptor and array in the assay with Bfl-1, Q16548 was determined as 0.05; in the assay with Bcl-w, Q92843, 0.04; with Bcl-xL, Q07817 it was 0.08; with Bcl-2, P10415 it was 0.02; in the assay with Mcl-1, Q07820 it was 0.04.
For the molecule RTNNYQLSDELRKNGVELTSLRQKVA [GRIPAP1], the SPOT signal as a fraction of Bim BH3's signal on the same receptor and array with Bfl-1, Q16548 came to 0.48; with Bcl-w, Q92843 it was 0.51; with Bcl-xL, Q07817 it was 0.39; with Bcl-2, P10415 it was 0.14; with Mcl-1, Q07820 it was 0.19.
On the same counts, the results for ASEANLFEEALEKYGKDFTDIQQDFL are 0.01, 0.02, 0.03, 0.01 and 0.03.
On the same counts, the results for ALTVKEMAQMLQSFGTELAETELPDD [MCF2] are 0.01, 0.02, 0.03, 0.01 and 0.03.
On the same counts, the results for LKELDLSGNSLSHSAVKSLCKTLRRP [NLRP1] are 0.42, 0.41, 0.4, 0.09 and 0.13.
As to RQAFYLHTTKLTRIARRLCREILRPW, the SPOT signal as a fraction of Bim BH3's signal on the same receptor and array in the assay with Bfl-1, Q16548 amounted to 0.72; with Bcl-w, Q92843 it was 0.89; with Bcl-xL, Q07817 it was 0.75; with Bcl-2, P10415, 0.23; with Mcl-1, Q07820, 0.41.
As for IKEAADIIQKLHLIAQELPFDRFSEV [EXOC5], the SPOT signal as a fraction of Bim BH3's signal on the same receptor and array with Bfl-1, Q16548 was 0.03; in the assay with Bcl-w, Q92843 it was 0.21; with Bcl-xL, Q07817, 0.11; in the assay with Bcl-2, P10415 it was 0.01; with Mcl-1, Q07820 it was 0.09.
On the same counts, the results for RAGELDRARELMRIGKRFGAVLEALE [CC2D1B] are 0.16, 0.13, 0.16, 0.03 and 0.06.
Take AIPRAEVAELLVHSGDFLVRESQGKQ [FES]: the SPOT signal as a fraction of Bim BH3's signal on the same receptor and array with Bfl-1, Q16548 was 0.02; in the assay with Bcl-w, Q92843, 0.02; with Bcl-xL, Q07817, 0.03; in the assay with Bcl-2, P10415, 0.01; with Mcl-1, Q07820, 0.03.
As for HRTSNVLTLSLKRFANFSGGKITKDV [USP36], the SPOT signal as a fraction of Bim BH3's signal on the same receptor and array turned out to be 0.48 with Bfl-1, Q16548; 0.65 in the assay with Bcl-w, Q92843; 0.55 with Bcl-xL, Q07817; 0.2 with Bcl-2, P10415; 0.29 in the assay with Mcl-1, Q07820.
On the same counts, the results for KEVEDCVPVFLKHIAHDIYVCGKTIN [TUBGCP6] are 0.03, 0.02, 0.04, 0.01 and 0.02.
Turning to SSTMGQVGRQLAIIGDDINRRYDSEF [BAK1], the SPOT signal as a fraction of Bim BH3's signal on the same receptor and array came to 0.4 in the assay with Bfl-1, Q16548; 0.72 in the assay with Bcl-w, Q92843; 0.4 in the assay with Bcl-xL, Q07817; 0.27 with Bcl-2, P10415; 0.84 with Mcl-1, Q07820.
As to ASGNKEMIEALKQYAMDYSNKALEKG [IFIT3], the SPOT signal as a fraction of Bim BH3's signal on the same receptor and array came out at 0.04 with Bfl-1, Q16548; 0.04 with Bcl-w, Q92843; 0.06 in the assay with Bcl-xL, Q07817; 0.01 with Bcl-2, P10415; 0.03 with Mcl-1, Q07820.
As to DIDEGLYSRQLYVLGHEAMKRLQTSS [UBA1], the SPOT signal as a fraction of Bim BH3's signal on the same receptor and array was 0.09 with Bfl-1, Q16548; 0.03 with Bcl-w, Q92843; 0.05 with Bcl-xL, Q07817; 0.02 with Bcl-2, P10415; 0.04 with Mcl-1, Q07820.
In the case of EQKLKQHVENLNQVAEKLEEKHSQIT [CCDC68], the SPOT signal as a fraction of Bim BH3's signal on the same receptor and array in the assay with Bfl-1, Q16548 is 0.01; with Bcl-w, Q92843, 0.02; with Bcl-xL, Q07817, 0.03; in the assay with Bcl-2, P10415 it was 0.01; in the assay with Mcl-1, Q07820 it was 0.02.
ASEAMLFEEALEKYGKDFNDIRQDFL: the SPOT signal as a fraction of Bim BH3's signal on the same receptor and array was 0.01 with Bfl-1, Q16548; 0.02 in the assay with Bcl-w, Q92843; 0.03 with Bcl-xL, Q07817; 0.01 with Bcl-2, P10415; 0.03 in the assay with Mcl-1, Q07820.
With ASEASLFEEALEKYGKDFNDIRQDFL [MTA3], the SPOT signal as a fraction of Bim BH3's signal on the same receptor and array was 0.01 in the assay with Bfl-1, Q16548; 0.02 in the assay with Bcl-w, Q92843; 0.02 with Bcl-xL, Q07817; 0.01 with Bcl-2, P10415; 0.02 with Mcl-1, Q07820.
For the molecule DFMGRTFAKPLVKMADEAYCPPRFPP [OTOF], the SPOT signal as a fraction of Bim BH3's signal on the same receptor and array with Bfl-1, Q16548 came out at 0.1; with Bcl-w, Q92843, 0.14; with Bcl-xL, Q07817, 0.26; with Bcl-2, P10415, 0.06; in the assay with Mcl-1, Q07820, 0.1.
On to NKDGKSVSNRLRRLSDNCGGKVLSIT [KIAA0430], for which the SPOT signal as a fraction of Bim BH3's signal on the same receptor and array with Bfl-1, Q16548 was determined as 0.31; with Bcl-w, Q92843, 0.61; in the assay with Bcl-xL, Q07817, 0.56; with Bcl-2, P10415, 0.13; in the assay with Mcl-1, Q07820 it was 0.21.
